According to publication PMC8683085, “Serine ADP-ribosylation marks nucleosomes for ALC1-dependent chromatin remodeling” (eLife, 2021):

Biological target: PARP1 (Homo sapiens, UniProt P09874)
Assay: PARP1 ADP-ribose chain elongation on mono-ADP-ribosylated peptide (RP-HPLC), with and without HPF1 titration
Type: biochemical
Settings: 1 μM PARP1, 180 μM H3S10ADPr1 peptide, 2 mM NAD+, 30 °C 25 min, RP-HPLC A280, n = 3
Protocol: To analyze PARP1 and PARP2 ADPr activity on peptide substrates, 2 mM NAD^+ and 1 μM stimulating DNA were combined into the ADPr reaction buffer in the presence of 0.2, 1, or 5 μM PARP1 or PARP2, in a 25 μL reaction (2 μM PARP1/2, 2 μM DNA and 50 μL reaction volume for H2B peptides). All unmodified and mono-ADP-ribosylated substrate peptides were analyzed at a concentration of 180 μM (40 μM for H2B peptides). The reaction was incubated at 30 °C for 25 min, quenched via addition of 95 μL (70 μL in case of H2B peptide reactions) of Solvent A. It was then centrifuged at 20,000 RCF for 5 min and 100 μL of the supernatant was injected into an analytical C18 column for product analysis via RP-HPLC. An elution gradient of 0–35% Solvent B over 20 min was employed to optimize separation of the poly-ADP-ribosylated peptide products. Percent substrate turnover was calculated by integrating the peaks for the starting material and each product on the RP-HPLC A280 trace, normalizing them depending on their number of ADP-ribose moieties, and calculating ratio of total product to total peptide amounts for each reaction. All reactions were performed in triplicate and error bars represent standard deviations. Individual peaks corresponding to products with unique ADP-ribose chain lengths were collected and analyzed by ESI-MS. […]

PARP1, sequence (P09874 whole entry): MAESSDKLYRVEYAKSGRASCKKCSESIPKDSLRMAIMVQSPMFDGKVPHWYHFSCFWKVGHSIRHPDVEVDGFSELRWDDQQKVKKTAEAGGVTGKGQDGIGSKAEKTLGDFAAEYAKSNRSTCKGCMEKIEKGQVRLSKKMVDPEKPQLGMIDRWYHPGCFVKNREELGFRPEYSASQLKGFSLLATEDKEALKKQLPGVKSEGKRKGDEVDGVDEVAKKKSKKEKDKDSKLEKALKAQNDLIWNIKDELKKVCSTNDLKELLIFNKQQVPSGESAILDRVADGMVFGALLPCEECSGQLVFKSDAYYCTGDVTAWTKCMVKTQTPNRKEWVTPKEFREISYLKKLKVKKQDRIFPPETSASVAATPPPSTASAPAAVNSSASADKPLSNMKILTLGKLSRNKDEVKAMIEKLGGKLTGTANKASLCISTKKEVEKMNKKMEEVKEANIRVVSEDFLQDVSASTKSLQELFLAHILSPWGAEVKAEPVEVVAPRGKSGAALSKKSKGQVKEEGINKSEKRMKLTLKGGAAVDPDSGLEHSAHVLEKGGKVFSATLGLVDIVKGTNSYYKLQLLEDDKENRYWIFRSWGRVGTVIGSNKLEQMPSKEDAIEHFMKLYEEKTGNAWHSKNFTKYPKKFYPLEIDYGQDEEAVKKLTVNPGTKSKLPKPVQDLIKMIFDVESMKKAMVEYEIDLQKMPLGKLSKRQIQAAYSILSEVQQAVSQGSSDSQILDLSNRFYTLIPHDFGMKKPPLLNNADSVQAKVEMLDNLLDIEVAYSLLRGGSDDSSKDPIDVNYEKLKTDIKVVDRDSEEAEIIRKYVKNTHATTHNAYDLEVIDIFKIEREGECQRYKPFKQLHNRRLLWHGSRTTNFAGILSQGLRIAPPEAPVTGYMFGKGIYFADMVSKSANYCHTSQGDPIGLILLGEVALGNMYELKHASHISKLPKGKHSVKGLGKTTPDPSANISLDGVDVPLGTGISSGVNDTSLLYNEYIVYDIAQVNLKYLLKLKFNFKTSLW

IC50 (read-out: HPF1 concentration giving 50% inhibition of PARP1-catalyzed ADP-ribose polymerization)	HPF1 concentration giving 50% inhibition of PARP1-catalyzed ADP-ribose polymerization	Molecule
~14 µM		HPF1: recombinant FLAG-HPF1, amino acids 27–346, PARP1/2-interacting protein (protein, left off: 6xHis, N-terminal, cleaved | SUMO, N-terminal, cleaved | FLAG, N-terminal, kept) KFCEADVSSDLRKEVENHYKLSLPEDFYHFWKFCEELDPEKPSDSLSASLGLQLVGPYDILAGKHKTKKKSTGLNFNLHWRFYYDPPEFQTIIIGDNKTQYHMGYFRDSPDEFPVYVGINEAKKNCIIVPNGDNVFAAVKLFLTKKLREITDKKKINLLKNIDEKLTEAARELGYSLEQRTVKMKQRDKKVVTKTFHGAGLVVPVDKNDVGYRELPETDADLKRICKTIVEAASDEERLKAFAPIQEMMTFVQFANDECDYGMGLELGMDLFCYGSHYFHKVAGQLLPLAYNLLKRNLFAEIIEEHLANRSQENIDQLAA
	unable to appreciably inhibit	HPF1 mutant (D283A): binding-deficient HPF1 mutant (protein, left off: 6xHis, N-terminal, cleaved | SUMO, N-terminal, cleaved | FLAG, N-terminal, kept) KFCEADVSSDLRKEVENHYKLSLPEDFYHFWKFCEELDPEKPSDSLSASLGLQLVGPYDILAGKHKTKKKSTGLNFNLHWRFYYDPPEFQTIIIGDNKTQYHMGYFRDSPDEFPVYVGINEAKKNCIIVPNGDNVFAAVKLFLTKKLREITDKKKINLLKNIDEKLTEAARELGYSLEQRTVKMKQRDKKVVTKTFHGAGLVVPVDKNDVGYRELPETDADLKRICKTIVEAASDEERLKAFAPIQEMMTFVQFANAECDYGMGLELGMDLFCYGSHYFHKVAGQLLPLAYNLLKRNLFAEIIEEHLANRSQENIDQLAA
